Here are results for four sequences from the supplement of paper PMC5998384.

The test system of series [1] is HeLa Kyoto. Nature of the series: solubility change mitosis vs G1/S (difference of NP-40 vs SDS log2 ratios) (log2 ratio difference); higher = more soluble in mitosis.
The test system of series [2] is HeLa Kyoto. Nature of the series: thermal stability score vs G1/S (z-score of summed log2 fold changes over temperatures); higher = more thermally stable than in G1/S.
Series [3] relates to HeLa Kyoto. The experiment in a line: solubility in G1/S (NP-40 vs SDS abundance) (log2 ratio); higher = more soluble. The settings on record: cell cycle stage: G1/S.
In series [4] the test system is HeLa Kyoto. The experiment in a line: melting temperature (median over replicates), in situ; higher = more thermally stable.
Setting [5] is: cell cycle stage: early G1 (4.5 h after nocodazole release).
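Wherever melting temperature (median over replicates), in situ is given: HeLa Kyoto cells synchronized by double thymidine or nocodazole block, proteins quantified by TMT10plex mass spectrometry, three independent biological replicates.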
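Wherever solubility change mitosis vs G1/S (difference of NP-40 vs SDS log2 ratios) is given: synchronized HeLa Kyoto cells (double thymidine block for G1/S, nocodazole release for mitosis), protein amounts in NP-40 versus SDS lysates quantified by mass spectrometry, three biological replicates.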
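Wherever solubility in G1/S (NP-40 vs SDS abundance) is given: HeLa Kyoto cells arrested at G1/S by double thymidine block, proteins quantified by TMT10plex mass spectrometry in mild NP-40 versus SDS extracts, three biological replicates.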
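Wherever thermal stability score vs G1/S (z-score of summed log2 fold changes over temperatures) is given: synchronized HeLa Kyoto cells, proteins quantified by TMT10plex mass spectrometry, three biological replicates, mitosis taken 0.5 h after nocodazole release, G1/S directly after double thymidine block.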

As to “MAAAGGAEGRRAALEAAAAAAPERGGGSCVLCCGDLEATALGRCDHPVCYRCSTKMRVLCEQRYCAVCREELRQVVFGKKLPAFATIPIHQLQHEKKYDIYFADGKVYALYRQLLQHECPRCPELPPFSLFGDLEQHMRRQHELFCCRLCLQHLQIFTYERKWYSRKDLARHRMQGDPDDTSHRGHPLCKFCDERYLDNDELLKHLRRDHYFCHFCDSDGAQDYYSDYAYLREHFREKHFLCEEGRCSTEQFTHAFRTEIDLKAHRTACHSRSRAEARQNRHIDLQFSYAPRHSRRNEGVVGGEDYEEVDRYSRQGRVARAGTRGAQQSRRGSWRYKREEEDREVAAAVRASVAAQQQEEARRSEDQEEGGRPKKEEAAARGPEDPRGPRRSPRTQGEGPGPKETSTNGPVSQEAFSVTGPAAPGCVGVPGALPPPSPKLKDEDFPSLSASTSSSCSTAATPGPVGLALPYAIPARGRSAFQEEDFPALVSSVPKPGTAPTSLVSAWNSSSSSKKVAQPPLSAQATGSGQPTRKAGKGSRGGRKGGPPFTQEEEEDGGPALQELLSTRPTGSVSSTLGLASIQPSKVGKKKKVGSEKPGTTLPQPPPATCPPGALQAPEAPASRAEGPVAVVVNGHTEGPAPARSAPKEPPGLPRPLGSFPCPTPQEDFPALGGPCPPRMPPPPGFSAVVLLKGTPPPPPPGLVPPISKPPPGFSGLLPSPHPACVPSPATTTTTKAPRLLPAPRAYLVPENFRERNLQLIQSIRDFLQSDEARFSEFKSHSGEFRQGLISAAQYYKSCRDLLGENFQKVFNELLVLLPDTAKQQELLSAHTDFCNREKPLSTKSKKNKKSAWQATTQQAGLDCRVCPTCQQVLAHGDASSHQALHAARDDDFPSLQAIARIIT [ZNF598]”, in the series on HeLa Kyoto [1], the “solubility change mitosis (log2)” value stood at 0.108. Further, the thermal stability score was -1.86 with HeLa Kyoto [2] (setting [5]) and -0.526 with HeLa Kyoto [2] (cell cycle stage: mitosis). Moreover, the “solubility in G1/S (log2)” value with HeLa Kyoto [3] is -0.223. The melting temperature turned out to be 51.6 °C in the series on HeLa Kyoto [4] (cell cycle stage: G1/S) and 51.1 °C in the series on HeLa Kyoto [4] (cell cycle stage: mitosis).
As for “MAAAGLVAVAAAAEYSGTVASGGNLPGVHCGPSSGAGPGFGPGSWSRSLDRALEEAAVTGVLSLSGRKLREFPRGAANHDLTDTTRADLSRNRLSEIPIEACHFVSLENLNLYQNCIRYIPEAILNLQALTFLNISRNQLSTLPVHLCNLPLKVLIASNNKLVSLPEEIGHLRHLMELDVSCNEIQTIPSQIGNLEALRDLNVRRNHLVHLPEELAELPLIRLDFSCNKITTIPVCYRNLRHLQTITLDNNPLQSPPAQICIKGKVHIFKYLNIQACKIAPDLPDYDRRPLGFGSCHEELYSSRPYGALDSGFNSVDSGDKRWSGNEPTDEFSDLPLRVAEITKEQRLRRESQYQENRGSLVVTNGGVEHDLDQIDYIDSCTAEEEEAEVRQPKGPDPDSLSSQFMAYIEQRRISHEGSPVKPVAIREFQKTEDMRRYLHQNRVPAEPSSLLSLSASHNQLSHTDLELHQRREQLVERTRREAQLAALQYEEEKIRTKQIQRDAVLDFVKQKASQSPQKQHPLLDGVDGECPFPSRRSQHTDDSALCMSLSGLNQVGCAATLPHSSAFTPLKSDDRPNALLSSPATETVHHSPAYSFPAAIQRNQPQRPESFLFRAGVRAETNKGHASPLPPSAAPTTDSTDSITGQNSRQREEELELIDQLRKHIEYRLKVSLPCDLGAALTDGVVLCHLANHVRPRSVPSIHVPSPAVPKLTMAKCRRNVENFLEACRKIGVPQEQLCLPLHILEEKGLSQVAVTVQALLELAPPKQQQHQLSAV [LRCH3]”, the “solubility change mitosis (log2)” value in the series on HeLa Kyoto [1] is -0.0597. Besides, the thermal stability score came to 0.000114 with HeLa Kyoto [2] (setting [5]) and 1.36 in the series with HeLa Kyoto [2] (cell cycle stage: mitosis). Also, the “solubility in G1/S (log2)” value in the series with HeLa Kyoto [3] stood at 0.108. For the same sequence, the melting temperature with HeLa Kyoto [4] (cell cycle stage: G1/S) was 46.9 °C; in the series on HeLa Kyoto [4] (cell cycle stage: mitosis), 48.8 °C.
With “MAAAGPSTRASSAAAAAALSRRGRRGRCDETAAAKTGAPGPASGPSLLVLSPPLLQPPLPPRPEESGCAGCLEPPGEAAALPCGHSLCRGCAQRAADAAGPGCPRCRARGPGWARRRARDDGQADSEVLGECARRSQPERCRPRRDGGAAAAGPRPEQEPRAAPAEPDFIFRAPIKLSKPGELREEYESLRKLREEKLQEEKPSEDQIHKLLPEDTETGKRKMDEQKKRDEPLVLKTNLERCPARLSDSENEEPSRGQMTQTHRSAFVSKNNSYSLAFLAGKLNSKVERSQSCSDTAQERAKSRVRAVPGNKAKVTTMTPASNPIIGVLLSTQNNRCVSAPDLTIEKRLPFSSLSSLASLHKPERSVSPESNDSISEELNHFKPIVCSPCTPPKRLPDGRVLSPLIIKSTPRNLNRSLQKQTSYEASPRILKKWEQIFQERQIKKTLSKATLTSLAPEMGEELLGSEGIHSSKEKPLVAVNTRLSGGQVLSEYTGPTSADLDHFPSVSQTKAEQDSDNKSSTEIPLETCCSSELKGGGSGTSLEREQFEGLGSTPDAKLDKTCISRAMKITTVNSVLPQNSVLGGVLKTKQQLKTLNHFDLTNGVLVESLSEEPLPSLRRGRKRHCKTKHLEQNGSLKKLRQTSGEVGLAPTDPVLREMEQKLQQEEEDRQLALQLQRMFDNERRTVSRRKGSVDQYLLRSSNMAGAK [RNF169]”, the “solubility change mitosis (log2)” value in the series with HeLa Kyoto [1] is 0.36. Besides, the thermal stability score was 0.359 in the series with HeLa Kyoto [2] (setting [5]) and 0.101 with HeLa Kyoto [2] (cell cycle stage: mitosis). For the same sequence, the “solubility in G1/S (log2)” value in the series on HeLa Kyoto [3] was -0.158. Further, in the series on HeLa Kyoto [4] (cell cycle stage: mitosis), the melting temperature was found to be 51.8 °C.
In the case of “MAAAGRLPSSWALFSPLLAGLALLGVGPVPARALHNVTAELFGAEAWGTLAAFGDLNSDKQTDLFVLRERNDLIVFLADQNAPYFKPKVKVSFKNHSALITSVVPGDYDGDSQMDVLLTYLPKNYAKSELGAVIFWGQNQTLDPNNMTILNRTFQDEPLIMDFNGDLIPDIFGITNESNQPQILLGGNLSWHPALTTTSKMRIPHSHAFIDLTEDFTADLFLTTLNATTSTFQFEIWENLDGNFSVSTILEKPQNMMVVGQSAFADFDGDGHMDHLLPGCEDKNCQKSTIYLVRSGMKQWVPVLQDFSNKGTLWGFVPFVDEQQPTEIPIPITLHIGDYNMDGYPDALVILKNTSGSNQQAFLLENVPCNNASCEEARRMFKVYWELTDLNQIKDAMVATFFDIYEDGILDIVVLSKGYTKNDFAIHTLKNNFEADAYFVKVIVLSGLCSNDCPRKITPFGVNQPGPYIMYTTVDANGYLKNGSAGQLSQSAHLALQLPYNVLGLGRSANFLDHLYVGIPRPSGEKSIRKQEWTAIIPNSQLIVIPYPHNVPRSWSAKLYLTPSNIVLLTAIALIGVCVFILAIIGILHWQEKKADDREKRQEAHRFHFDAM [ITFG1]”, the “solubility change mitosis (log2)” value in the series on HeLa Kyoto [1] is -0.259. Further, the figures for the thermal stability score in the series on HeLa Kyoto [2] (setting [5]) and with HeLa Kyoto [2] (cell cycle stage: mitosis) were 0.328 and 0.713, respectively. Also, the “solubility in G1/S (log2)” value in the series on HeLa Kyoto [3] was found to be 0.327. Besides, the melting temperature in the series with HeLa Kyoto [4] (cell cycle stage: G1/S) amounted to 55.9 °C; in the series with HeLa Kyoto [4] (cell cycle stage: mitosis), 57.5 °C.
